Experimental data as given in US20180230214A1.

Molecular target: biotinylated soluble human CD56 (human) (UniProt P13591)
Test: flow cytometry of 56-28z-LNGFR transduced T cells stained with biotinylated soluble human CD56 (y axis 'sCD56 binding') against LNGFR (x axis). The other quadrants of this panel read 0.56 (upper left), 41.8 (lower left) and 33.1 (lower right). The sCD56 signal rises with LNGFR to about 10^3. The untransduced T cell control panel reads 0.57 (upper left), 0.27 (upper right), 97.6 (lower left) and 1.61 (lower right).

Q: How did the quadrant number, cells positive for sCD56 binding and for LNGFR (upper right quadrant) turn out when “56-28z CAR (scFv of murine anti-human CD56 antibody N901 fused to CD28/CD3z domains)” was run?
A: 24.5%
